From paper PMC12483565, “CBFβ-SMMHC–driven leukemogenesis requires enhanced RUNX1-DNA binding affinity in mice”

Target: RUNX1c-R201Q (human, UniProt Q01196-8 1-480, R201Q)
Test: EMSA; BLI: 20 mM Tris-HCl pH 8.0, 150 mM KCl, 1 mM EDTA, 1 mM DTT, 0.02% Tween-20, with 800 nM CBFβ or 400 nM CBFβ-SMMHC/mutant, preincubated 37 °C 30 min; EMSA: room temperature 30 min, 4-12% TBE gel, 1x TBE
Settings: protein: ivt; label: IRDye700

Chain of RUNX1c-R201Q (Q01196 other isoform, or with tags, fused parts or gaps R201Q | R201Q R201Q): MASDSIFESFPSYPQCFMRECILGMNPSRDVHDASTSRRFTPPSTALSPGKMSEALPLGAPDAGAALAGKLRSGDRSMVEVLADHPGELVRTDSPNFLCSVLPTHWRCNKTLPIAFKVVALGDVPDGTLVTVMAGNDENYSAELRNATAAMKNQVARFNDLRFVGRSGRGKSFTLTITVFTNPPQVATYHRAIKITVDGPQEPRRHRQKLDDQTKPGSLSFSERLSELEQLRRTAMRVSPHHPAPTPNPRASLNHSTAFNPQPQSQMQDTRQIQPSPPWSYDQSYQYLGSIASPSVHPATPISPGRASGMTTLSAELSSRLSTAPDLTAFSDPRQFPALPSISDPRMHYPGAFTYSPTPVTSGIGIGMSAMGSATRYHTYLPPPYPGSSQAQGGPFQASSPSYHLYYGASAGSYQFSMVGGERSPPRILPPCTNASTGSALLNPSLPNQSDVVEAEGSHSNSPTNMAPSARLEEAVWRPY

B1: CSF1R promoter probe (EMSA) (dsDNA)
DNA 1: CAAACTCTGTGGTTGCCTTG
DNA 2: CAAGGCAACCACAGAGTTTG
  binding result: no binding
